Data on 9 molecules can be found in patent US20210072252A1 (WASHINGTON UNIVERSITY, published 2021).

Test [1] has as its target peptide with N-terminal isoleucine. The experiment in a line: biolayer interferometry (Blitz), peptide-coated sensor, NAAB in 1x PBS, 1:1 fit, kd/ka. In general terms: BLI is a label-free optical method that tracks binding on a fibre tip over time.
The target in test [2] is peptide with N-terminal methionine (biolayer interferometry). The test is described as above.
The target of test [3] is peptide with N-terminal arginine. Described as above.
In test [4] the target is peptide with N-terminal glutamate. The description is as above.
In test [5] the target is peptide with N-terminal threonine. Described as above.
Test [6] addresses peptide with N-terminal serine. Described as above.
The target in test [7] is peptide with N-terminal glutamine. The description is as above.
Test [8] has as its target peptide with N-terminal asparagine. The test is described as above.
Test [9] addresses synthetic peptide with N-terminal leucine (Example 1, on nanogel surface). Kind of test: single-molecule detection, TIRF microscopy; Cy5-labeled NAAB on peptide immobilized on nanogel; counts per field of view.
Protocol: The NAAB for N-terminal leucine amino acids was non-specifically labeled with Cy5 fluorophore on lysine side chains. […] An additional experiment was performed with no peptide added. The labeled NAAB was briefly incubated with the immobilized peptide, and unbound protein was removed by washing. Bound protein, which may be bound specifically to peptides or non-specifically to the surface, was imaged by total internal reflection fluorescence (TIRF) microscopy. Spots exceeding a detection threshold were deemed to indicate bound protein and were converted to a number of counts per field-of-view.

Usually Kd stands for the equilibrium constant for the complex coming apart. Read a high Kd as lower affinity.

B1: IleNAAB (enzyme)
chain: FPMRGDLAKREPGMLARWTDDDLYGIIRAAKKGKKTFILHDGPPYANGSIHIGHSVNKILKDIIIKSKGLSGYDSPYVPGWDCHGLPIELKVEQEYGKPGEKFTAAEFRAKCREYAATQVDGQRKDFIRLGVLGDWSHPYLTMDFKTEANIIRALGKIIGNGHLHKGAKPVHWCVDCRSALAEAEVEYYDKTSPSIVAFQAVDQDALKTKFGVSNVNGPISLVIWTTTPWTLPANRAISIAPDFDYALVQIDGQAVILAKDLVESMQRIGVSDYTILGTVKGAELELLRFTHPFMDFDVPAILGDHVTLDAGTGAVHTAPGHGPDDYVIGQKYGLETANPVGPDGTYLPGTYPTLDGVNVFKANDIVVALLQEKGALLHVEKMQHSYPCCWRHKTPIIFRATPQWFVSMDQKGLRAQSLKEIKGVQWIPDWGQARIESMVANRPDWCISRQRTWGVPMSLFVHKDTEELHPRTLELMEEVAKRVEVDGIQAWWDLDAKEILGDEADQYVKVPDTLDVWFDSGSTHSSVVDVRPEFAGHAADMYLEGSDQHRGWFMSSLMISTAMKGKAPYRQVLTHGFTVDGQGRKMSKSIGNTVSPQDVMNKLGADILRLWVASTDYTGEMAVSDEILKRAADSYRRIRNTARFLLANLNGFDPAKDMVKPEEMVVLDRWAVGCAKAAQEDILKAYEAYDFHEVVQRLMRFCSVEMGSFYLDIIKDRQYTAKADSVARRSCQTALYHIAEALVRWMAPILSFTADEVWGYLPGERE
notes: Purified on GSTrap; also called Isoleucine
For the molecule B1, in [1], the affinity, expressed as Kd, was 3010 nM.

B2: Met NAAB (as used in biolayer interferometry) (designed binder)
chain: AKKILVTCASPYANGSIHLGHMLEHIQADVWVRYQRMRGHEVNFICADDAHGTPIMLKAQQLGITPEQMIGEMSQEHQTDFAGFNISYDNYHSTHSEENRQLSELIYSRLKENGFIKNRTISQLYDPEKGMFLPDRFVKGTCPKCKSPDQYGDNCEVCGATYSPTELIEPKSVVSGATPVMRDSEHFFFDLPSFSEMLQAWTRSGALQEQVANKMQEWFESGLQQWDISRDAPYFGFEIPNAPGKYFYVWLDAPIGLMGSFKNLCDKRGDSVSFDEYWKKDSTAELYHFIGKGIVYFLSLFWPAMLEGSNFRKPSNLFVHGYVTVNGAKMSKSRGTFIKASTWLNHFDADSLRYYYTAKLSSRIDDIDLNLEDFVQRVNADIVNKVVNLASRNAGFINKRFDGVLASELADPQLYKTFTDAAEVIGEAWESREFGKAVREIMALADLANRYVDEQAPWVVAKQEGRDADLQAICSMGINLFRVLMTYLKPVLPKLTERAEAFLNTELTWDGIQQPLLGHKVNPFKALYNRIDMRQVEALVEASK
notes: Same engineered MetRS fragment as m5, here without stated Cy5 label; also called Methionine
As to B2, in test [2], the Kd worked out at 1070 nM.

B3: ArgNAAB (enzyme)
chain: EKQTIVVDYSAPNVAKEMHVGHLRSTIIGDAAVRTLEFLGHKVIRANHVGDWGTQFGMLIAWLEKQQQENAGEMELADLEGFYRDAKKHYDEDEEFAERARNYVVKLQSGDEYFREMWRKLVDITMTQNQITYDRLNVTLTRDDVMGESLYNPMLPGIVADLKAKGLAVESEGATVVFLDEFKNKEGEPMGVIIQKKDGGYLYTTTDIACAKYRYESLHADRVLYYIDSRQHQHLMQAWAIVRKAGYVPESVPLEHHMFGMMLGKDGKPFKTRAGGTVKLADLLDETLERARRLVAEKNPDMPADELEKLANAVGIGAVKYADLSKNRTTDYIFDWDNMLAFEGNTAPYMQYAYTRVLSVFRKAEINEEQLAAAPVIIREDREAQLAARLLQFEETLTVVAREGTPHVMCAYLYDLAGLFSGFYEHCPILSAENEEVRNSRLKLAQLTAKTLKLGLDTLGIETVERM
notes: Purified on GSTrap; also called Arginine
As to B3, the Kd in test [3] amounted to 129 nM.

B4: GluNAAB (enzyme)
chain: IKTRFAPSPTGYLHVGGARTALYSWLFARNHGGEFVLRIEDTDLERSTPEAIEAIMDGMNWLSLEWDEGPYYQTKRFDRYNAVIDQMLEEGTAYKCYCSKERLEALREEQMAKGEKPRYDGRCRHSHEHHADDEPCVVRFANPQEGSVVFDDQIRGPIEFSNQELDDLIIRRTDGSPTYNFCVVVDDWDMEITHVIRGEDHINNTPRQINILKALNAPVPVYAHVSMINGDDGKKLSKRHGAVSVMQYRDDGYLPEALLNYLVRLGWSHGDQEIFTREEMIKYFTLNAVSKSASAFNTDKLLWLNHHYI
notes: also called Glutamate
B4 displayed a Kd in test [4] of 2120 nM.

B5: ThreNAAB (enzyme)
chain: RDHRKIGKQLDLYHMQEEAPGMVFWHNDGWTIFRELEVFVRSKLKEYQYQEVKGPFMMDRVLWEKTGHWDNYKDAMFTTSSENREYCIKPMNCPGHVQIFNQGLKSYRDLPLRMAEFGSCHRNEPSGSLHGLGRVRGFTQDDAHIFCTEEQIRDEVNGCIRLVYDMYSTFGFEKIVVKLSTRPEKRIGSDEMWDRAEADLAVALEENNIPFEYQLGEGAFYGPKIEFTLYDCLDRAAQCGTVQLDFSLPSRLSASYVGEDNERKVPVMIHRAILGSMEVFIGILTEEFAGFFPTWLAPVQVVIMNITDSQSEYVNELTQKLSNAGIRVKADLRNEKIGFKIREHTLRRVPYMLVCGDKEVESGKVAVRTRRGKDLGSMDVNEVIEKLQQEIRSRSLKQLEE
notes: Purified on GSTrap; also called Threonine
Consider B5, for which binding in [5] was characterised by a dissociation constant (Kd) of 1010 nM.

B6: SerNAAB (enzyme)
chain: MLDPNLLRNEPDAVAEKLARRGFKLDVDKLGALEERRKVLQVKTENLQAERNSRSKSIGQAKARGEDIEPLRLEVNKLGEELDAAKAELDALQAEIRDIALTIPNLPADEVPVGKDENDNVEVSRWGTPREFDFEVRDHVTLGEMYSGLDFAAAVKLTGSRFVVMKGQIARMHRALSQFMLDLHTEQHGYSENYVPYLVNQDTLYGTGQLPKFAGDLFHTRPLEEEADTSNYALIPTAEVPLTNLVRGEIIDEDDLPIKMTAHTPCFRSEAGSYGRDTRGLIRMHQFDKVEMVQIVRPEDSMAALEEMTGHAEKVLQLLGLPYRKIILCTGDMGFGACKTYDLEVWIPAQNTYREISSCSNVWDFQARRMQARCRSKSDKKTRLVHTLNGSGLAVGRTLVAVMENYQQADGRIEVPEVLRPYMNGLEYI
notes: Purified on GSTrap; also called Serine
As to B6, the Kd in [6] turned out to be 938 nM.

B7: GlnNAAB (enzyme)
chain: TNFIRQIIDEDLASGKHTTVHTRFPPEPNGYLHIGHAKSICLNFGIAQDYKGQCNLRFDDTNPVKEDIEYVESIKNDVEWLGFHWSGNVRYSSDYFDQLHAYAIELINKGLAYVDELTPEQIREYRGTLTQPGKNSPYRDRSVEENLALFEKMRTGGFEEGKACLRAKIDMASPFIVMRDPVLYRIKFAEHHQTGNKWCIYPMYDFTHCISDALEGITHSLCTLEFQDNRRLYDWVLDNITIPVHPRQYEFSR
notes: Purified on GSTrap; also called Glutamine
Regarding B7, in test [7], binding was put at a Kd of 531 nM.

B8: AsnNAAB (enzyme)
chain: SIEYLREVAHLRPRTNLIGAVARVRHTLAQALHRFFNEQGFFWVSTPLITASDTEGAGEMFRVSTLDLENLPRNDQGKVDFDKDFFGKESFLTVSGQLNGETYACALSKIYTFGPTFRAENSNTSRHLAEFWMLEPEVAFANLNDIAGLAEAMLKYVFKAVLEERADDMKFFAERVDKDAVSRLERFIEADFAQVDYTDAVTILENCGRKFENPVYWGVDLSSEHERYLAEEHFKAPVVVKNYPKDIKAFYMRLNEDGKTVAAMDVLAPGIGEIIGGSQREERLDVLDERMLEMGLNKEDYWWYRDLRRYGTVPHSGFGLGFERLIAYVTGVQNVRDVIPFPRTP
notes: Purified on GSTrap; also called Asparagine
B8: the affinity in [8], expressed as Kd, was 754 nM.

B9: eLAP, engineered leucine-specific aminopeptidase (NAAB for N-terminal leucine) (designed binder)
chain: MAISIKTPEDIEKMRVAGRLAAEVLEMIEPYVKPGVSTGELERICWDYIVNEQHATDSLTGHNGIDGHGSISINEVVCHGVPDDAKLLKDGDIVNIDVTVRKDGFHGDTSKMFIVGKPTIMGERLCRITQESLYLALRMVKPGINLREIGAAIQKFVEAEGFSVVREYCGHGIGRGHHEEPQVLHYDSRETNVVLKPGMTFTIEPMVNAGKKEIRTMKDGSTVKTKDRSLSAQYEHTIVVTDNGCEILTLRKDDTIPAIISHDE
modifications: Cy5 fluorophore non-specifically on lysine side chains
notes: also called NAAB for leucine
Consider B9, for which the “ratio of specific to non-specific binding” value in test [9] is around 2 to 1.
